Measured values taken from the supplement of paper PMC10065799, “High-throughput profiling of sequence recognition by tyrosine kinases and SH2 domains using bacterial peptide display” (eLife, 2023).

Tests used:
Fyn = Fyn (UniProt P06241); test: phosphorylation enrichment, bacterial display (enrichment ratio); higher = better substrate or ligand; peptides without Tyr show the background
Fer (mouse) = test: as above
EPHB2 = EPHB2 (UniProt P29323); test: as above
Jak2 = Jak2 (UniProt O60674); test: as above
Jak2, sequence (O60674 whole entry, looked up): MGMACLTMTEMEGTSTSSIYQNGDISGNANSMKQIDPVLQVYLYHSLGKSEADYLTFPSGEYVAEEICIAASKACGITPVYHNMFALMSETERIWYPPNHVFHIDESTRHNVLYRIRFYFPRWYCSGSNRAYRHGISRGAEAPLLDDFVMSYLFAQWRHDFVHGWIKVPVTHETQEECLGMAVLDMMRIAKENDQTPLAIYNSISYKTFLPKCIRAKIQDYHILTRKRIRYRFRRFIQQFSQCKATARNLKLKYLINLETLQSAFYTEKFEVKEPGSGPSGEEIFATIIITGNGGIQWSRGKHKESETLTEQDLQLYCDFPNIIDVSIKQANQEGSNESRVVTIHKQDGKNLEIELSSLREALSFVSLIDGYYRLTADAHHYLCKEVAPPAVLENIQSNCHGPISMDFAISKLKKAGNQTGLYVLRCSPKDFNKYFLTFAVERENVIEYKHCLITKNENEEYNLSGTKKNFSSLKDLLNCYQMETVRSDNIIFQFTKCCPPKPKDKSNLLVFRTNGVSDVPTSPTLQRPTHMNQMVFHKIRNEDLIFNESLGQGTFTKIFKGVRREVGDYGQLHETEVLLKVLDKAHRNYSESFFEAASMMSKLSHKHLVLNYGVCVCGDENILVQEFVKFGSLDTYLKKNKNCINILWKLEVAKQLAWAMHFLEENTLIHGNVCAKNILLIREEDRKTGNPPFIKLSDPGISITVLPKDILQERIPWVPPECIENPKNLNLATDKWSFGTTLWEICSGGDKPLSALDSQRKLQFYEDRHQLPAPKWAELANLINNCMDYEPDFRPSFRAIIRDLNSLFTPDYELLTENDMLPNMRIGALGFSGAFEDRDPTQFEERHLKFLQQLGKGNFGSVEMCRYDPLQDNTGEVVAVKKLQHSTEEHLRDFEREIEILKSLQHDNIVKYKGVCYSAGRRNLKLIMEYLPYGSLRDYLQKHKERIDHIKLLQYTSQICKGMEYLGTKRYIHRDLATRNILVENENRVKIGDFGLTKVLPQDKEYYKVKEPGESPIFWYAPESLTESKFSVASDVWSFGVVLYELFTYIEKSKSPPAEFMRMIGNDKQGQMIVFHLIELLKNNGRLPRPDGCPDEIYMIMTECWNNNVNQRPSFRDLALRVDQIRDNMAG

c-Src = test: as above
Hck = Hck (UniProt P08631); test: as above
EPHB1 = EPHB1 (UniProt P54762); test: as above
EPHB1, sequence (P54762 whole entry, looked up): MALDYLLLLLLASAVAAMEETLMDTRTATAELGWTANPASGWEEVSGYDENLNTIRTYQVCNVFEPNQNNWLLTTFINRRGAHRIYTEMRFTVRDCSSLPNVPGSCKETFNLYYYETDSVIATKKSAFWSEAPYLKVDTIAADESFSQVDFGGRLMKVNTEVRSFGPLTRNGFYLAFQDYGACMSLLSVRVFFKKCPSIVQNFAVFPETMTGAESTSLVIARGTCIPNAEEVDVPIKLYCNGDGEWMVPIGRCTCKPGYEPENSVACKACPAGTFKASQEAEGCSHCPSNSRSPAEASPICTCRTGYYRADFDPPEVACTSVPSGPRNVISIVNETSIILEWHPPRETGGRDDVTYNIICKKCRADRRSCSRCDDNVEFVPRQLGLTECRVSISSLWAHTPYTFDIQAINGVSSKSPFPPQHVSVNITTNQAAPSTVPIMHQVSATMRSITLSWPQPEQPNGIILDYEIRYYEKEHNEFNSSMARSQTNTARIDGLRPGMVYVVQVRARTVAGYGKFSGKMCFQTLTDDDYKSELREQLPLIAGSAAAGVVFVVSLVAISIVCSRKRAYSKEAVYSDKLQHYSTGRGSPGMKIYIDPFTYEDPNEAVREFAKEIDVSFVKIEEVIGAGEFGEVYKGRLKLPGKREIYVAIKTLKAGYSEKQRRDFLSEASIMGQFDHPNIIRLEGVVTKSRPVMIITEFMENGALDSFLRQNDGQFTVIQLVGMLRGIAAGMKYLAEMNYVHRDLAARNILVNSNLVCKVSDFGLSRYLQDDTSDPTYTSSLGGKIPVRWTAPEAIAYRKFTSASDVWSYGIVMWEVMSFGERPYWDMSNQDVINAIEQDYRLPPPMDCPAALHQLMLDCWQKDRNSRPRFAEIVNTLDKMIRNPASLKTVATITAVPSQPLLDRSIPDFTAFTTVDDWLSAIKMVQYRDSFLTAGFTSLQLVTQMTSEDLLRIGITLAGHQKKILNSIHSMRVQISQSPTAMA

FGFR1 = FGFR1 (UniProt P11362); test: as above
FGFR1, sequence (P11362 whole entry, looked up): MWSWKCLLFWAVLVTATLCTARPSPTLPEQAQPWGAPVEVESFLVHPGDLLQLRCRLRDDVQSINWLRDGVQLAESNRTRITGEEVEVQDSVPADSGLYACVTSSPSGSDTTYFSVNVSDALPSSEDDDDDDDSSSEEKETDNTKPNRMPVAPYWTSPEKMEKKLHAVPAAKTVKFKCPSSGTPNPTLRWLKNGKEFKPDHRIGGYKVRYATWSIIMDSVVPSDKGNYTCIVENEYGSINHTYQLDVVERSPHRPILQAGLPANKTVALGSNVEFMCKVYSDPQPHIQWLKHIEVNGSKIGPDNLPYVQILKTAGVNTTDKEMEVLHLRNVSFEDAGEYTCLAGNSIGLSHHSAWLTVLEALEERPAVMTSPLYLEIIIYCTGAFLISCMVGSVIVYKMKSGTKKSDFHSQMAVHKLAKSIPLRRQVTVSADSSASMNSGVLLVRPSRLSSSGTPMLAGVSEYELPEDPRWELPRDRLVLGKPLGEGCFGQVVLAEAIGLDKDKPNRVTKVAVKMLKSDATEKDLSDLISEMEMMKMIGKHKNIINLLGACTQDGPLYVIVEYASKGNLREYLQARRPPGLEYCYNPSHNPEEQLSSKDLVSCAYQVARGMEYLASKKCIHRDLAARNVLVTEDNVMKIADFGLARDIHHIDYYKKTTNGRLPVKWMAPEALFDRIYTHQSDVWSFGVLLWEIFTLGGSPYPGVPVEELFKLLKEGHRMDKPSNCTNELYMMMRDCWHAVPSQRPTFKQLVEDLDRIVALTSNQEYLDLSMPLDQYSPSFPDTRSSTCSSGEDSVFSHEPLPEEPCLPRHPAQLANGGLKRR

MERTK = MERTK (UniProt Q12866); test: as above
Fes = Fes (UniProt P07332); test: as above
Fes, sequence (P07332 whole entry, looked up): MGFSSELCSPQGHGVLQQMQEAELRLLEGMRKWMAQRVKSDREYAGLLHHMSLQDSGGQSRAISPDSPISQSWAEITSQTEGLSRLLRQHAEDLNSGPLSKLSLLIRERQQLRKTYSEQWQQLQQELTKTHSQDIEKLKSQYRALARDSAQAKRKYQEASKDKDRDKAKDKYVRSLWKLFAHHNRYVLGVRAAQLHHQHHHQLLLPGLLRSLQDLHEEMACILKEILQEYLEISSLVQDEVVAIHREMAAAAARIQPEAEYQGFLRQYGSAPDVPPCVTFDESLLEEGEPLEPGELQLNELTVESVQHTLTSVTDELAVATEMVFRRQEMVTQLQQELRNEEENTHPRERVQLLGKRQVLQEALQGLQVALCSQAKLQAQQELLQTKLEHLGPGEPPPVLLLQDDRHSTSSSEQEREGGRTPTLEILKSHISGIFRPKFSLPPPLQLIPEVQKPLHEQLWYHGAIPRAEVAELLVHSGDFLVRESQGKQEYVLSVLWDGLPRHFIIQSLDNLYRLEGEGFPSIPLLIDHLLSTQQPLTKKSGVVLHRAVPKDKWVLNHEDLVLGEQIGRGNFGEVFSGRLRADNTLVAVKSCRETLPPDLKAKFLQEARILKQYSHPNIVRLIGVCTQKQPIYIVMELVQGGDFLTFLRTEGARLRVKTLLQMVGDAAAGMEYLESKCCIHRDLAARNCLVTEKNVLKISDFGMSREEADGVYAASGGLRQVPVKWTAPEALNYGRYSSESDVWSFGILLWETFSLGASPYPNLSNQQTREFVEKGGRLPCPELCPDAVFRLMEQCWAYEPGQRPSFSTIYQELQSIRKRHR

AncSZ = test: as above
FGFR3 = FGFR3 (UniProt P22607); test: as above
FGFR3, sequence (P22607 whole entry, looked up): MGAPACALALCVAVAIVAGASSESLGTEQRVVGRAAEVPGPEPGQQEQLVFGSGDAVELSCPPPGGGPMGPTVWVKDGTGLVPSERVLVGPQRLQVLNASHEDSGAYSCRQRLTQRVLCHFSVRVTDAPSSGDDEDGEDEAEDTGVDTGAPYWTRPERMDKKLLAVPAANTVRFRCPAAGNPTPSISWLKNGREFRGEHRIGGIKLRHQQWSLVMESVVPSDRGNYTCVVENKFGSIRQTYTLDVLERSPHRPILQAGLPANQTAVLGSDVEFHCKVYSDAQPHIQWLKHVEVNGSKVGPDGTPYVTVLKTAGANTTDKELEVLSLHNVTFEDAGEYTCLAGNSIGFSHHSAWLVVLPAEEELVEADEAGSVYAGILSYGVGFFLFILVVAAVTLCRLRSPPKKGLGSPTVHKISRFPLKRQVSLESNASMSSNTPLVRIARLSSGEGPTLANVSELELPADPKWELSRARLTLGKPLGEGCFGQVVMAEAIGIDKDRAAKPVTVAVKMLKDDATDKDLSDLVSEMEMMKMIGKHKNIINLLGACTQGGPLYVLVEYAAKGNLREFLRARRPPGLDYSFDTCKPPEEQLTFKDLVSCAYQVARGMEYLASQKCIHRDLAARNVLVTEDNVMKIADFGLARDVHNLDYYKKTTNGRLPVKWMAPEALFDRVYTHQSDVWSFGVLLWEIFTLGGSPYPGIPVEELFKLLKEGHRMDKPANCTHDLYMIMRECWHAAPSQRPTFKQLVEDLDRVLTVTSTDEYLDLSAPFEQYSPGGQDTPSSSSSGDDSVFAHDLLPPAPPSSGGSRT

c-Abl (mouse) = test: as above
c-Src SH2 = test: SH2 binding enrichment of the phosphorylated peptide, bacterial display (enrichment ratio); higher = better substrate or ligand; peptides without Tyr show the background
Grb2 SH2 = Grb2 SH2 (UniProt P62993); test: as above
SHP2-C SH2 = test: as above
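Wherever SH2 binding enrichment of the phosphorylated peptide, bacterial display is given: peptide library displayed on the E. coli surface as eCPX fusions, selected cells deep-sequenced, score is each peptide's frequency after selection divided by its frequency in the input.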
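Wherever phosphorylation enrichment, bacterial display is given: 11-residue human phosphosite peptides and single-mutation variants displayed on the E. coli surface, counted by deep sequencing, each peptide's frequency after selection divided by its frequency in the unselected input library; frequency after pTyr selection over input frequency; kinase dosed for 20-30% of maximal phosphorylation in three min.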

Fyn, sequence (P06241 whole entry, looked up): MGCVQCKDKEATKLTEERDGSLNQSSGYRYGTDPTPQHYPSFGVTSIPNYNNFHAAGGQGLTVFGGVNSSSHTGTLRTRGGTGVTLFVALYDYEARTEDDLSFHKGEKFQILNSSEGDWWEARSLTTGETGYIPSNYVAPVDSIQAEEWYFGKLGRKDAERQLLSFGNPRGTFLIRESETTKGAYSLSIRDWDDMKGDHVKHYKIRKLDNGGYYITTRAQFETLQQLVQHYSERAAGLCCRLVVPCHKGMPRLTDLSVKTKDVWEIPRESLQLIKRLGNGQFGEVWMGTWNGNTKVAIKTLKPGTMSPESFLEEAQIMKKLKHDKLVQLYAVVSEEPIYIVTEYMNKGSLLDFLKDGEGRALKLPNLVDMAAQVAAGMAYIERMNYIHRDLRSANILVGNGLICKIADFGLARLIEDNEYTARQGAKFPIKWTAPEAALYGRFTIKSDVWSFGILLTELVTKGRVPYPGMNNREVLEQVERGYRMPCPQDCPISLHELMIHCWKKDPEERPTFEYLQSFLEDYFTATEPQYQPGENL

| Sequence | phosphorylation enrichment (Fyn) | phosphorylation enrichment (Fer (mouse)) | phosphorylation enrichment (EPHB2) | phosphorylation enrichment (Jak2) | phosphorylation enrichment (c-Src) | phosphorylation enrichment (Hck) | phosphorylation enrichment (EPHB1) | phosphorylation enrichment (FGFR1) | phosphorylation enrichment (MERTK) | phosphorylation enrichment (Fes) | phosphorylation enrichment (AncSZ) | phosphorylation enrichment (FGFR3) | phosphorylation enrichment (c-Abl (mouse)) | SH2 binding enrichment (c-Src SH2) | SH2 binding enrichment (Grb2 SH2) | SH2 binding enrichment (SHP2-C SH2) |
| --- | --- | --- | --- | --- | --- | --- | --- | --- | --- | --- | --- | --- | --- | --- | --- | --- |
| DLLNSYIENEG [HSPA4L_Y600] | 0.53 | 0.545 | 0.561 | 1.17 | 0.343 | 0.484 | 0.573 | 0.528 | 0.375 | 0.999 | 0.996 | 0.875 | 0.585 | 0.693 | 1.04 | 0.656 |
| WLFFRYLPIGC [ATP2A2_Y836_A838P] | 0.38 | 0.559 | 0.531 | 1.14 | 0.345 | 0.477 | 0.529 | 0.538 | 0.415 | 1.3 | 1.29 | 0.778 | 0.657 | 0.796 | 1.26 | 1.36 |
| VMLENYSNLLS [ZFP69_Y109_V113L] | 0.396 | 0.372 | 0.864 | 0.699 | 0.428 | 0.422 | 1.97 | 0.559 | 0.388 | 0.832 | 0.66 | 0.586 | 0.595 | 0.778 | 0.899 | 0.928 |
| HRGYLYLAIEY [TEK_Y899] | 0.485 | 0.432 | 0.485 | 1.03 | 0.375 | 0.466 | 0.558 | 0.521 | 0.486 | 1.22 | 1.23 | 0.602 | 1.24 | 0.695 | 1.24 | 1.11 |
| SGTYQYIIAKF [FOXL2_Y83_I80T] | 0.749 | 2.58 | 1.53 | 1.29 | 0.943 | 2.06 | 4.98 | 3.65 | 5.26 | 1.51 | 1.43 | 2.42 | 1.17 | 0.696 | 0.74 | 0.541 |
| SWSTSYSGYRC [NKAPL_Y91_Y96C] | 0.462 | 0.532 | 0.547 | 0.98 | 0.848 | 0.552 | 0.551 | 0.585 | 0.443 | 0.993 | 0.944 | 0.62 | 0.751 | 0.63 | 0.914 | 0.798 |
| PSSRDYKDNIK [PIGN_Y227_H229D] | 0.496 | 0.407 | 0.467 | 0.9 | 0.569 | 0.381 | 0.595 | 0.614 | 0.727 | 0.649 | 0.556 | 0.614 | 0.47 | 0.394 | 1.16 | 0.449 |
| LTEHGYSFTTT [ACTB_Y198_R196H] | 0.968 | 0.815 | 0.533 | 1.61 | 1.09 | 0.342 | 0.862 | 0.961 | 0.938 | 1.79 | 2.11 | 1.09 | 1.58 | 1.88 | 0.817 | 0.883 |
| SDVDLYQVRIA [PSMD9_Y70_T74I] | 1.86 | 0.756 | 0.497 | 1.04 | 2.13 | 4.07 | 0.594 | 0.598 | 0.463 | 0.892 | 0.92 | 0.583 | 0.579 | 0.431 | 0.789 | 0.793 |
| AEMKRYSESSS [RAI14_Y869_A870S] | 0.503 | 0.38 | 0.329 | 0.678 | 0.382 | 0.37 | 0.308 | 0.681 | 0.337 | 0.638 | 0.524 | 0.523 | 0.43 | 0.541 | 0.744 | 0.767 |
| CTTIFYNFMCN [TP53_Y234_H233Y_YF] | 0.592 | 1.05 | 0.634 | 1.28 | 1.69 | 0.562 | 0.686 | 1.05 | 1.93 | 1.42 | 1.12 | 1.12 | 0.597 | 1.45 | 2.09 | 1.8 |
| SDGHEYIFVDP [PDGFRB_Y579_YF] | 0.509 | 0.447 | 0.486 | 1 | 0.512 | 0.43 | 0.478 | 1.75 | 0.425 | 0.811 | 2.08 | 1.37 | 0.573 | 0.769 | 0.769 | 0.544 |
| RLCQDYDTIGP [ANK1_Y1073] | 0.838 | 1.05 | 3.94 | 0.778 | 0.971 | 1.61 | 2.96 | 0.541 | 0.602 | 1.44 | 1.88 | 0.976 | 0.964 | 1.61 | 1.35 | 0.814 |
| PDMHSYMVRYN [GRIN2D_Y732] | 0.64 | 0.674 | 0.787 | 1.07 | 0.782 | 0.706 | 0.637 | 0.767 | 0.616 | 1.09 | 0.955 | 1.04 | 1.02 | 0.613 | 0.858 | 0.97 |
| MCVKSYTIHFS [F5_Y2153_Y2149C_YF] | 0.489 | 0.552 | 0.622 | 1.05 | 0.565 | 0.546 | 0.718 | 0.525 | 0.448 | 1.41 | 1.47 | 1.01 | 1.02 | 0.485 | 0.841 | 0.617 |
| KNKKDYFDMFE [SLC26A3_Y526_YF] | 0.453 | 0.418 | 0.585 | 0.706 | 0.524 | 0.444 | 0.779 | 3.49 | 0.568 | 0.909 | 0.864 | 2.62 | 0.882 | 0.595 | 0.979 | 1.01 |
| YIILIYAMKKK [SLCO1B1_Y645] | 0.514 | 0.399 | 0.348 | 0.451 | 0.363 | 0.53 | 0.486 | 0.331 | 0.416 | 0.511 | 0.588 | 0.692 | 0.426 | 2.04 | 2.34 | 2.86 |
| LHRAHYDLRHT [AHSG_Y314] | 0.617 | 0.8 | 0.78 | 0.725 | 0.556 | 0.876 | 0.668 | 0.707 | 0.418 | 1.11 | 0.621 | 1.1 | 0.908 | 1.19 | 1.83 | 1.6 |
| NALAQYQEMEK [BBS4_Y395] | 0.545 | 0.454 | 0.471 | 0.714 | 0.366 | 0.612 | 0.466 | 0.594 | 0.467 | 0.967 | 1.1 | 0.658 | 0.512 | 3.07 | 0.795 | 0.808 |
| IIRRLYLKWHP [SACS_Y4333] | 0.535 | 0.453 | 0.543 | 0.819 | 0.571 | 0.497 | 0.508 | 0.474 | 0.612 | 0.904 | 1.04 | 0.596 | 0.721 | 0.34 | 0.768 | 0.568 |
| SRASYYRKGGC [ALK_Y1283_Y1278S] | 0.38 | 0.326 | 0.371 | 0.641 | 0.52 | 0.37 | 0.34 | 0.414 | 0.428 | 0.5 | 0.522 | 0.335 | 0.585 | 0.607 | 0.644 | 0.473 |
| KRAIGYYSATS [FAM120A_Y327] | 0.456 | 0.383 | 0.387 | 0.439 | 0.359 | 0.406 | 0.366 | 0.412 | 0.55 | 0.472 | 0.477 | 0.389 | 0.437 | 1.41 | 0.864 | 0.821 |
| KQRKEYMHRWQ [IQGAP2_Y710_R714W] | 0.523 | 0.617 | 0.746 | 1.68 | 0.584 | 0.613 | 0.652 | 0.577 | 0.519 | 1.02 | 0.846 | 1.16 | 1.05 | 2.02 | 2.29 | 2.21 |
| KKCTTYIDCDL [ASPA_Y64_R63T] | 0.42 | 0.713 | 0.474 | 0.81 | 0.415 | 0.491 | 0.48 | 0.571 | 0.391 | 1.14 | 0.975 | 0.665 | 0.601 | 0.703 | 0.883 | 0.826 |
| KMGNIYRTEYG [MRPL3_Y265] | 0.475 | 0.334 | 0.373 | 0.577 | 0.536 | 0.477 | 0.488 | 0.413 | 0.539 | 0.701 | 0.621 | 0.526 | 0.496 | 0.529 | 0.884 | 0.73 |
| AVSEGYKDFRA [CDA_Y79] | 0.441 | 0.341 | 0.456 | 0.553 | 0.338 | 0.452 | 0.386 | 0.519 | 0.449 | 0.689 | 0.602 | 0.542 | 0.602 | 0.385 | 0.687 | 0.554 |
| KWRGQYDVAIK [BTK_Y425] | 0.491 | 0.429 | 0.642 | 0.543 | 0.567 | 0.479 | 0.399 | 0.527 | 0.463 | 0.742 | 0.676 | 0.546 | 0.802 | 1.21 | 1.34 | 0.935 |
| DPEAAYTTRGG [EPHA3_Y779] | 0.531 | 0.45 | 0.385 | 0.652 | 0.475 | 0.468 | 0.466 | 0.376 | 0.374 | 0.717 | 0.629 | 0.507 | 0.559 | 0.357 | 0.872 | 0.588 |
| FEPWVYSLSYE [PRKDC_Y647_F649L] | 7.16 | 1.77 | 0.767 | 1.33 | 6.59 | 4.72 | 0.749 | 0.602 | 1.6 | 1.49 | 1.6 | 0.893 | 0.707 | 0.674 | 0.812 | 0.568 |
